Source: publication PMC12058244, “Design and Synthesis of ^68Ga‐Labeled Peptide‐Based Heterodimers for Dual Targeting of NTS1 and GRPR” (Chemmedchem, 2025)
Read-outs that look alike come from different tables or passages of the source.

What was measured:
NTS1 = details: cited from earlier work
Experimental: The design of novel heterodimers was based on SAR studies. […] For this reason, the NT analogue JMV 438 ([Lys^8–Lys^9]NT[8–13]) was widely studied and validated as a positive control (NTS1 K i=4.0 nM, Chart 1).[19] Recently, in the attempt to improve the binding affinity towards NTS1, lipophilic residues were incorporated in the NT[8–13] sequence.[20] Among the new analogues, JMV 2007 (Chart 1), in which a trimethylsilylala ...

[1] = Octanol/water partition coefficient (LogD7.4); type: physicochemical
Experimental: Determination of the Octanol/Water Partition Coefficient (LogD7.4) LogD determination was performed in triplicate and repeated over three radiolabelings. Approximately 3.7 MBq of the ^68Ga‐radiolabeled peptide were added to qsp 500 μL of PBS (Gibco, France, pH=7.4) and 500 μL of octanol (Sigma Aldrich, USA) in microcentrifuge tubes. Tubes were shaken then vortexed and centrifuged at room temperature (3 min, 4000 rpm). 100 μL of each layer were sampled in separate test tubes and measured in a gamma‐counter (Wizard2, PerkinElmer, USA). LogD7.4 value was obtained by calculating the log10 of the ratio between the organic phase activity (cpm) and the aqueous phase activity (cpm). Both activities were decay‐corrected.

[Lys^8‐Lys^9‐TMSAla^13]NT[8–13] [JMV 2007, NT[8-13] analogue with TMSAla at position 13]
IC50 (NTS1): 0.02 nM

[Lys^8–Lys^9]NT[8–13] [JMV 438]
Ki (NTS1): 4 nM

CC[C@H](C)[C@H](NC(=O)[C@H](Cc1ccc(O)cc1)NC(=O)[C@@H]1CCCN1C(=O)[C@H](CCCCN)NC(=O)[C@H](CCCCN)NC(=O)CCNC(=O)[C@H](CCC(=O)NCCC(=O)NCCC(=O)N[C@H](Cc1ccccc1)C(=O)N[C@@H](CCC(N)=O)C(=O)N[C@@H](Cc1c[nH]c2ccccc12)C(=O)N[C@@H](C)C(=O)N[C@H](C(=O)NCC(=O)N[C@@H](Cc1c[nH]cn1)C(=O)N[C@@H](CC(C)C)[C@@H](O)CC(=O)N[C@@H](CC(C)C)C(N)=O)C(C)C)NC(=O)CCNC(=O)CN1CCN(CC(=O)O)CCN(CC(=O)O)CCN(CC(=O)O)CC1)C(=O)N[C@@H](CC(C)C)C(=O)O [[^68Ga]Ga‐JMV 7266, metal not drawn]
logD ([1]; pH 7.4): -2.62 ± 0.13

CC[C@H](C)[C@H](NC(=O)[C@H](Cc1ccc(O)cc1)NC(=O)[C@@H]1CCCN1C(=O)[C@H](CCCCN)NC(=O)[C@H](CCCCN)NC(=O)CCNC(=O)CCNC(=O)[C@H](CC(C)C)NC(=O)C[C@H](O)[C@H](CC(C)C)NC(=O)[C@H](Cc1c[nH]cn1)NC(=O)CNC(=O)[C@@H](NC(=O)[C@H](C)NC(=O)[C@H](Cc1c[nH]c2ccccc12)NC(=O)[C@H](CCC(N)=O)NC(=O)[C@@H](Cc1ccccc1)NC(=O)CCNC(=O)CCNC(=O)CN1CCN(CC(=O)O)CCN(CC(=O)O)CCN(CC(=O)O)CC1)C(C)C)C(=O)N[C@@H](CC(C)C)C(=O)O [[^68Ga]Ga‐JMV 7110, metal not drawn]
logD ([1]; pH 7.4): -2.74 ± 0.21

CC[C@H](C)[C@H](NC(=O)[C@H](Cc1ccc(O)cc1)NC(=O)[C@@H]1CCCN1C(=O)[C@H](CCCCN)NC(=O)[C@H](CCCCN)NC(=O)CCNC(=O)CCNC(=O)[C@H](CC(C)C)NC(=O)C[C@H](O)[C@H](CC(C)C)NC(=O)[C@H](Cc1c[nH]cn1)NC(=O)CNC(=O)[C@@H](NC(=O)[C@H](C)NC(=O)[C@H](Cc1c[nH]c2ccccc12)NC(=O)[C@H](CCC(N)=O)NC(=O)[C@@H](Cc1ccccc1)NC(=O)CCNC(=O)CCNC(=O)CN1CCN(CC(=O)O)CCN(CC(=O)O)CCN(CC(=O)O)CC1)C(C)C)C(=O)N[C@@H](C[Si](C)(C)C)C(=O)O [[^68Ga]Ga‐JMV 7253, metal not drawn]
logD ([1]; shake-flask octanol/PBS (Gibco) pH 7.4, 500 μL each, ~3.7 MBq 68Ga-peptide, room temperature, centrifuged 3 min 4000 rpm, gamma-counter, triplicate repeated over three radiolabelings, mean±SD, read-out: LogD7.4): -2.46 ± 0.07
